Assay results reported in patent US20240287172A1 (SCIRHOM, published 2024).

T1: hiR2-FL-I566A-T7 (human, UniProt Q6PJF5 1-856)
T1 sequence: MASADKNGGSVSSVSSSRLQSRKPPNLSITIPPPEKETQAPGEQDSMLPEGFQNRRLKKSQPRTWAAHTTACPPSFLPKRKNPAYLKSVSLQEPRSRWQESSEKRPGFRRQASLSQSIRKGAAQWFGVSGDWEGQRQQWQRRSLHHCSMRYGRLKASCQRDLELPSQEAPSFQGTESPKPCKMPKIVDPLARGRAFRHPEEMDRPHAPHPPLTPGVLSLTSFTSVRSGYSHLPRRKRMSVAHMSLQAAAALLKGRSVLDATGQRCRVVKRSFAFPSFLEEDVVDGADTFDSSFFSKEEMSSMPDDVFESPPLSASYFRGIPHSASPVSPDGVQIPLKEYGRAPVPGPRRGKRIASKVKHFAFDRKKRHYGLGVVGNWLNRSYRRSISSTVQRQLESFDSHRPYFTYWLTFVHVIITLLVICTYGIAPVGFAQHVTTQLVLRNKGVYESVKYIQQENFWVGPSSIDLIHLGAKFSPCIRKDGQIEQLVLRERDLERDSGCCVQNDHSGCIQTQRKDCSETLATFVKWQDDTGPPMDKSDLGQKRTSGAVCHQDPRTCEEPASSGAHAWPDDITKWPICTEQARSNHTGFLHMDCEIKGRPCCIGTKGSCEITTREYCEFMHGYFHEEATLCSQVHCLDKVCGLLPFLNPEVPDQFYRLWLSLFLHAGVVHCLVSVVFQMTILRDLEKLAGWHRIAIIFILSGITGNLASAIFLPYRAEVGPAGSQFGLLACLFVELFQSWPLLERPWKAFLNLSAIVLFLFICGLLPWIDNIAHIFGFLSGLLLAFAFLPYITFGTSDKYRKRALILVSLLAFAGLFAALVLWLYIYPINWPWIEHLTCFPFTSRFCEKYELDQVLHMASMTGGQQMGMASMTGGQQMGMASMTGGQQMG

T2: hiR2-FL-H590A-T7 (human, UniProt Q6PJF5 1-856)
T2 sequence: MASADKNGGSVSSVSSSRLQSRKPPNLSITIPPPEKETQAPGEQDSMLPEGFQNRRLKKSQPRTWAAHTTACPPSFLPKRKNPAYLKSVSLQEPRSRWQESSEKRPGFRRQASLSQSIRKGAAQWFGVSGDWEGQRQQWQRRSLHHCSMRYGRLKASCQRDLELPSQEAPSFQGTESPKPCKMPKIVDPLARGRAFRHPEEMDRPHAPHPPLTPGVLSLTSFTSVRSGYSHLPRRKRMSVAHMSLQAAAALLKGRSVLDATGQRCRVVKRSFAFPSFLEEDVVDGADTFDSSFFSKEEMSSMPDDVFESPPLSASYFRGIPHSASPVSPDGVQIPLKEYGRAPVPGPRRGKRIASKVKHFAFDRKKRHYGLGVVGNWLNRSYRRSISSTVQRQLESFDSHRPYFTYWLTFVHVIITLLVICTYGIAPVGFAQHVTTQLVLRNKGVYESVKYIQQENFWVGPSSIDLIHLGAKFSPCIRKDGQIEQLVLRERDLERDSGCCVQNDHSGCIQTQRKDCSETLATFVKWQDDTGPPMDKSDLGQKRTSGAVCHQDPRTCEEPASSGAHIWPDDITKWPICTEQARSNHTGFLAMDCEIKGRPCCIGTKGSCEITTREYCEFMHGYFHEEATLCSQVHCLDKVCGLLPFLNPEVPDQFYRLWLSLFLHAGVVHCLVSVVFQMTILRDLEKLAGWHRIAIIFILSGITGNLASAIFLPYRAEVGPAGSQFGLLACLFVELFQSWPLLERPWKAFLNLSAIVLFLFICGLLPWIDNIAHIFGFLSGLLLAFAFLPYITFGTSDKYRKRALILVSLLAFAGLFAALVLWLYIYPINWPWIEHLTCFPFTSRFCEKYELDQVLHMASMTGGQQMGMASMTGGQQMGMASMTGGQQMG


Key:
hiR2-FL-I566A-T7 = biological target: T1, hiR2-FL-I566A-T7; assay: FACS on MEF-DKO cells expressing the variant, 3 µg/ml antibody
Outline: (§1)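 Pelleted cells are resuspended in antibody at 3 μg/ml and kept on ice 1 hour, washed, then incubated with PE goat anti-mouse IgG F(ab′)2 diluted 1:100 on ice for 1 hour protected from light, washed again and analysed by flow cytometry.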

hiR2-FL-H590A-T7 = biological target: T2, hiR2-FL-H590A-T7; assay: as above
Outline: as §1

| Binder | loss of binding vs wild type (hiR2-FL-I566A-T7) [%] | loss of binding vs wild type (hiR2-FL-H590A-T7) [%] |
| --- | --- | --- |
| antibody 34 (antibody, V domains shown, mouse IgG, kappa light chain; also called clone #34; purified antibody 34) VH: QVTLKESGPGILQPSQTLSLTCSFSGFSLSTFSLGVGWIRQSSGKGLEWLAHIWWDDEKYYNPALKSRLTISKDTSKNQVFLKIANVDAADTATYYCARAYYSKSYYALDYWGQGTSVTVSS VL: DIQMTQSPSSLSASLGERVSLTCRASQEISGYLSWLQQKPDGTIKRLIYAASTLDSGVPKRFSGSRSGSDYSLAISSLESEDFADYYCLQYANFPFTFGSGTKLEIK | ≥ 30 |  |
| antibody 48 (antibody, V domains shown, mouse IgG, kappa light chain; also called clone #48; purified antibody 48) VH: QVQLQQSGTELVRPGTSVKVSCKASGYAFTNYLIEWVKQRPGQGLEWIGVINPGSGFTKYNEKFKGKATLTADKSSSTVYMHLSSLTSEDSAVYFCARGLYRAMDYWGQGTSVTVSS VL: DIQMTQSPASQSASLGESVTITCLASQTIATWLAWYQQKPGKSPQLLIYGATTLADGVPSRFSGGGSGTKFSFKISSLQAEDFVSYYCQQLYSTPYTFGGGTKLEIK |  | ≥ 30 |
